This is an account of results in US20140341809A1.

For orientation: pKd means the negative decadic logarithm of the Kd, by convention in mol/L. The low end stands for a high Kd, the high end for a low Kd.

pKd: −log10 of the molar value.

Test [1] addresses …/HLA-A2. Put plainly: SPR, Biacore 3000, 25 C. (In general: Surface plasmon resonance follows binding to a sensor surface in real time, without labels.)
In test [2] the target is …/HLA-A2. Put plainly: SPR, against wild-type DMF5.
Test [3] has as its target …/HLA-A2. Put plainly: SPR, Biacore 3000, 25 C (FIG. 2B shows a kinetic titration for this pair).

DMF5 TCR αD27W mutant showed a pKd with …/HLA-A2 [1] of 6.17. In the test with …/HLA-A2 [2], this substance had a ΔΔG of -1.6 kcal/mol.
For “high-affinity DMF5 variant αD27Y/βL95W (TCR)”, the pKd was 5.77 in the test with …/HLA-A2 [1] and 7.62 with …/HLA-A2 [3].
